Experimental data as given in paper PMC6721692, “Extracellular Juxtamembrane Motif Critical for TrkB Preformed Dimer and Activation” (Cells, 2019).

Target: the molecule itself
Experiment: native gel or EMSA; native PAGE (no SDS, no β-ME) of lysates of CHO-TrkBdelECD365-eGFP cells treated with vehicle, BDNF or MM12 (1.0 nM, 37 °C); Western blot with MM12

B1: TrkBdelECD365-eGFP (human truncated TrkB lacking the ECD up to residue 365, EJM retained) (domain or fragment)
chain: not shown
notes: EJM, transmembrane and intracellular parts retained; amplified from pGFP-hTrkB with the printed primers; The signal peptide of the vector pGFP-hTrkB is not described; also called hTrkBdelECD365-eGFP; TrkB lacking ECD365; source: CHO cells, stably transfected (CHO-TrkBdelECD365-eGFP), in lysate; not shown: eGFP, C-terminal, kept
  stoichiometry N: 2
